Measurements published in patent US20250281632A1, “LGALS3BP ANTIBODY-DRUG-CONJUGATE AND ITS USE FOR THE TREATMENT OF CANCER” (MEDIAPHARMA S.R.L., priority 2018, published 2025).

T1: Human recombinant LGALS3BP (human, UniProt Q08380 19-585)
T1 construct: also called 90K
T1 sequence (looked up): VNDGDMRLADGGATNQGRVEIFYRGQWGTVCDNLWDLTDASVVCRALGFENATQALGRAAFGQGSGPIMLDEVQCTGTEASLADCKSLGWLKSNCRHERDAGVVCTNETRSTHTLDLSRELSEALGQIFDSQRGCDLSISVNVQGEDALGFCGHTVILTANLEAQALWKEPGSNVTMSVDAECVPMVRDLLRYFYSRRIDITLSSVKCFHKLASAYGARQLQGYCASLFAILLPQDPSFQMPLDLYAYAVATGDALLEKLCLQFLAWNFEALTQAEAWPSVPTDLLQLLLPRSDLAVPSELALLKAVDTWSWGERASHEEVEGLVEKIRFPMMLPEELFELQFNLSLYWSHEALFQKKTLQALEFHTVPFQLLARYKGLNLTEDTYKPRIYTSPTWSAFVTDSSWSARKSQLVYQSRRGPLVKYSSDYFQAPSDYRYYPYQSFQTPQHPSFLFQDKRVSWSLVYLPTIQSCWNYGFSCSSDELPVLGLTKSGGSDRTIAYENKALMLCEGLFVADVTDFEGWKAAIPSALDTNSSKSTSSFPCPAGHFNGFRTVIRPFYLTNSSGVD

T2: LGALS3BP at the membrane of human tumor cells (human, UniProt Q08380 19-585)
T2 construct: whole, on cells; A secreted protein that stays close to the plasma membrane; It was detected by immunofluorescence on cells; also called Gal-3BP
T2 sequence (looked up): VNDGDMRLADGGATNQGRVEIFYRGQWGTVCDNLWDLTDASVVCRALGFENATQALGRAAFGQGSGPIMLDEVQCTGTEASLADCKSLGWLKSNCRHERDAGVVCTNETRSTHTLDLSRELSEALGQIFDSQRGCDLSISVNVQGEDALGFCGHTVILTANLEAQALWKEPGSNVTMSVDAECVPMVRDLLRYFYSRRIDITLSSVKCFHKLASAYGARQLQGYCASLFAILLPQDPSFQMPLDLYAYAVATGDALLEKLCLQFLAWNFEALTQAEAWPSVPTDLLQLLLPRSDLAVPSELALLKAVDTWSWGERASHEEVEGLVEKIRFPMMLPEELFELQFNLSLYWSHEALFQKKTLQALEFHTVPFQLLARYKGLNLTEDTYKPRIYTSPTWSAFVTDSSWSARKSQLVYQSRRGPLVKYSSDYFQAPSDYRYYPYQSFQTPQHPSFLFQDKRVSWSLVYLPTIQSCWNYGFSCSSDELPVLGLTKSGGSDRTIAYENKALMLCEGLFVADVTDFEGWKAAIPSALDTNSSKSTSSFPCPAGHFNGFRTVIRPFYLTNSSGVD


Legend:
[1] = system: Neuroblastoma cell lines (SHSY5Y, Kelly and hNB); test: MTT cell killing assay; assay type: cell-based, human; settings: 72 hours, A375m melanoma cells as positive control (FIG. 19)
Method: Neuroblastoma cell lines (SHSY5Y, Kelly and hNB) and A375m melanoma cell line were plated and treated with increasing concentrations of SH-DM3 for 72 hours. The cell killing activity of the drug was evaluated by MTT assay.

[2] = biological target: T1, Human recombinant LGALS3BP; test: ELISA, plate-coated human recombinant LGALS3BP, anti-human IgG-HRP detection
Method: Human recombinant LGALS3BP (2 μg/ml) was pre-coated overnight at 4° C. on 96 well-plates NUNC Maxisorp modules. […] After several washes with PBS-0, 1% Tween-20, anti-human IgG-HRP was added and incubated for 1 hour at room temperature. After washes, stabilized chromogen was added for at least 10 minutes in the dark, before stopping the reaction with the addition of 1 N H₂SO₄. The resulting color was read at 492 nm with an Elisa reader.

[3] = biological target: T2, LGALS3BP at the membrane of human tumor …; test: confocal immunofluorescence on MDA-MB-231, A375 and FADU cells, anti-human IgG-Alexa Fluor 488
Method: Human tumor cells were grown on glass coverslips for 24 hours. […] At the end of incubation, cells were fixed in 4% paraformaldehyde for 15 minutes at room temperature, permeabilized with 0.25% Triton X-100 for 5 minutes, and blocked with 0.1% BSA for 1 hour at room temperature. Coverslips were then incubated with anti-human IgG-Alexa Fluor 488 conjugated. DRAQ5 was used to visualize nuclei. Images were acquired with a Zeiss LSM 510 meta-confocal microscopy using 488- and 633-nm lasers. [0142] […] [0143] A-B; MDA-MB-231 breast cancer; C-D, A375 melanoma; E-F, FADU, H&N cancer; G-H, HBF, normal bronchial fibroblasts.

| binding result [2] | binding result [3] | Molecule | cell killing activity [1] |
| --- | --- | --- | --- |
| – | – | COc1cc2cc(c1Cl)N(C)C(=O)C[C@H](OC(=O)C(C)N(C)C(=O)CCC(C)S)[C@]1(C)O[C@H]1[C@H](C)C1C[C@@](O)(NC(=O)O1)[C@H](OC)/C=C/C=C(\C)C2 (some centres unmarked) [SH DM3] | potent cell killing activity |
| binds | binds | Antibody 1959-sss (C220S-C226S-C229S) (antibody, V domains shown, Humanized SP-2 on a human IgG framework, with the hinge cysteines 220, 226 and 229 changed to serine, so no interchain disulfides; Made in CHO cells) VH: QVQLQESGPGLVKPSETLSLTCAVSGYSISSGYYWTWIRQPPGKGLEWIGYITYDGKNNYSPSLKNRVTISVDTSKNQFSLKLSSVTAADTAVYYCAREGSSVITTGFTFWGQGTLVTVSS VL: DIQMTQSPSTLSASVGDRVTITCSASSRVSYMYWYQQKPGKAPKLLIYLTSNLASGVPARFSGSGSGTEFTLTISSLQPDDFATYYCQQWTSHPPTFGQGTKVEVKR | – |
| binds | binds | 1959-sss-DM3 (antibody, V domains shown, maytansinoid DM3 joined by a disulfide bond to a cysteine of the light chain (DAR 2; light chain mass 24053 Da against 23261 Da reduced); residue number not given, also called Ab1959-SSS-DM3) VH: QVQLQESGPGLVKPSETLSLTCAVSGYSISSGYYWTWIRQPPGKGLEWIGYITYDGKNNYSPSLKNRVTISVDTSKNQFSLKLSSVTAADTAVYYCAREGSSVITTGFTFWGQGTLVTVSS VL: DIQMTQSPSTLSASVGDRVTITCSASSRVSYMYWYQQKPGKAPKLLIYLTSNLASGVPARFSGSGSGTEFTLTISSLQPDDFATYYCQQWTSHPPTFGQGTKVEVKR | – |
